Measurements reported in US20200369777A1 (Bristol-Myers Squibb, published 2020).

Columns and labels:
human OX40 [1] = target: T1, human OX40 (human, UniProt P43489 29-277); test: Flow cytometry receptor occupancy on human CD4+ T cells cultured with CHO-OKT3-CD32A cells
T1 construct: also called TNFRSF4; CD134
T1 sequence: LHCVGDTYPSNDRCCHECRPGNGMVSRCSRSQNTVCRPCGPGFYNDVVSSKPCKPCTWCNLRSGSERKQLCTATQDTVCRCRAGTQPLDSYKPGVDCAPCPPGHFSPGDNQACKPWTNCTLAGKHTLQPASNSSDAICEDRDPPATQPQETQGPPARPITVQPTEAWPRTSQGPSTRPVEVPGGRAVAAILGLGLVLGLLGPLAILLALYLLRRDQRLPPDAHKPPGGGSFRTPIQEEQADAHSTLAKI

human OX40 [2] = target: T1, human OX40; test: as above; remark: listed apart in the source
cynomolgus OX40 = target: T2, cynomolgus OX40 (cynomolgus, UniProt P43489 29-277 (human entry)); test: flow cytometry, binding to activated cynomolgus T cells
T2 chain: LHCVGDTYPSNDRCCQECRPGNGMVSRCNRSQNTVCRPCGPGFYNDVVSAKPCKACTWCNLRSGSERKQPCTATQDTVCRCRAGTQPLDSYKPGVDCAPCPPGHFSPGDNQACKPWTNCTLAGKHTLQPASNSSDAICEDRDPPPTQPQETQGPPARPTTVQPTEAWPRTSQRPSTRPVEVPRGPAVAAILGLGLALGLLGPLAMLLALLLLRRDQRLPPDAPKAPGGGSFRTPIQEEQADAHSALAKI

human OX40 [3] = target: T1, human OX40; test: Emax model (RO = Emax x Cmin1 / (EC50 + Cmin1)) of the trough concentration after the first dose against peripheral blood RO on CD4+ T cells at C2D1 in patients. The text prints the value rounded, 0.094 ug/mL. No Emax value is printed; the median curve runs from about 92 % at 20 mg to about 99 % at 320 mg
Source text: (§1) This Example describes a PK-PD model for predicting receptor occupancy in human patients. The drug concentration-time profile was described by a linear two-compartment PK model using population PK analysis. […] The individual drug exposure (Cmin1: trough concentration after first dose) in the alternative dose schedule was predicted based on the PPK model, which was used in subsequent PK-PD model development.
(§2) wherein drug concentration is Cmin1, the trough concentration after first dose, ROₘₐₓ is the maximum percentage of blood RO and EC₅₀ is the drug concentration corresponding to 50% of ROₘₐₓ. From this analysis, the drug EC₅₀ was estimated to be 0.094 μg/mL (FIG. 8B). The trial […] was conducted to predict blood RO at alternative dosing schedules by using the established PK-PD relationship (Emax model), as well as taking into account inter-subject variability of PK and PD (FIG. 9).

human OX40 [4] = target: T1, human OX40; test: cell-based or functional assay
human OX40 [5] = target: T1, human OX40; test: flow cytometry, binding to activated human T cells
mouse OX40 = target: T3, mouse OX40 (mouse, UniProt P47741 20-272); test: flow cytometry, binding to activated mouse T cells
T3 construct: whole, on cells; also called murine OX40
T3 sequence (looked up): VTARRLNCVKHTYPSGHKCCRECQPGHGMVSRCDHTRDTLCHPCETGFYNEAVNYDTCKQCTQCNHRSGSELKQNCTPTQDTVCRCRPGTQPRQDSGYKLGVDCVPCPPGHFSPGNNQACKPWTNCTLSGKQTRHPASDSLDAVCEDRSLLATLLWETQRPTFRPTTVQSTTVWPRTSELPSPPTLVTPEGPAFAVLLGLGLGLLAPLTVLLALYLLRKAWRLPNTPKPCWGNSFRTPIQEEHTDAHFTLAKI

human OX40 [6] = target: T1, human OX40; test: Emax PK-PD model: trough serum concentration (Cmin1) against blood receptor occupancy on CD4+ T cells at C2D1, 16 cancer patients, flow cytometry; in vivo blood receptor occupancy vs trough serum concentration (Cmin1), Emax PK-PD model; not an in vitro titration
Source text: as §1, §2

human OX40 [7] = target: T1, human OX40; test: Flow cytometry on human CD4+ T cells cultured with CHO-OKT3-CD32A cells; bound OX40.21 detected with APC anti-human Fc. Total surface OX40 changes along the same titration
Protocol: Briefly, total T cells were purified from human whole blood using Ficoll gradient centrifugation. CD4+ T cells were isolated from PBMCs using the Miltenyi CD4+ isolation kit. Isolated T cells were cultured in the presence of irradiated CHO-OKT3-CD32A (artificial antigen presenting cells) and in the presence of serial dilutions of OX40.21 or isotype control. Receptor occupancy was determined as the ratio of bound OX40 antibody to total surface OX40 using flow cytometry. Bound antibody was assessed by adding fluorescent conjugated anti-human Fc after washing the T cells. Total OX40 was determined by adding a saturating amount of OX40 antibody to the T cells. Following incubation, cells were washed and stained by adding fluorescent conjugated anti-human FC.

B1: OX40.21 (antibody, human IgG1, kappa, V domains shown)
VH: EVQLVQSGGGLVQPGGSLRLSCAGSGFTFSSYAMYWVRQAPGKGLEWVSAIDTDAGTFYADSVRGRFTISRDNAKNSLYLQMNSLRAEDTAVYFCARLGEGYFFDYWGQGTLVTVSS
VL: EIVLTQSPATLSLSPGERATLSCRASQSVSSYLAWYQQKPGQAPRLLIYDASNRATGIPARFSGSGSGTDFTLTISSLEPEDFAVYYCQQRSNWPPTFGGGTKVEIKR
notes: also called OX40.21 (human)
EC50 (read off the curve) (human OX40 [1]): ~0.3 nM
EC50 (read off the curve) (human OX40 [2]): ~0.3 nM
EC50 (cynomolgus OX40): 0.068 nM
EC50 (human OX40 [3]): 0.0937 µg/mL
EC50 of internalization (mean circle spot total intensity) in CD3/CD28-activated Tregs. The table prints no unit; the axis is 'Log nM Ab' (human OX40 [4]): 0.0779 nM
EC50 (human OX40 [5]): 0.072 nM
binding result (mouse OX40): no binding
EC50 (human OX40 [6]): 0.094 µg/mL
EC50 (read off the curve) (human OX40 [7]): ~0.1 nM
